Among the data in US20240336672A1 are AUC, % binding inhibition and OD405nm values, retold here.

Common to all, as to settings: remark: other sources report otherwise
Test [1] has as its target SARS-CoV-2 RBD (B.1.1.7) domain (SARS-CoV-2). Kind of test: ELISA. Set-up: unit not given beside the values. (In general: ELISA stands for enzyme-linked immunosorbent assay.)
Test [2] deals with SARS-CoV-2 RBD (B.1.351) domain (SARS-CoV-2). Kind of test: ELISA. Set-up: unit not given beside the values.
In test [3] the target is SARS-CoV-2 RBD (P.1) domain (SARS-CoV-2). Kind of test: ELISA. Set-up: unit not given beside the values.
In test [4] the target is SARS-CoV-2 delta plus variant RBD (SARS-CoV-2). The test is described as follows: ELISA. Set-up: unit not given beside the values.
The target of test [5] is T1, SARS-CoV-2 delta variant B.1.617.2/3 RBD domain (SARS-CoV-2). Kind of test: ELISA. Set-up: unit not given beside the values.
Test [6] addresses T2, SARS-CoV-2 kappa variant B.1.617.1/3 RBD domain (SARS-CoV-2). The test is described as follows: ELISA. Set-up: unit not given beside the values.
Test [7] has as its target SARS-CoV-2 RBD (B.1.1.7) domain (SARS-CoV-2). Kind of test: RBD/ACE2 blocking ELISA.
In test [8] the target is SARS-CoV-2 RBD (B.1.351) domain (SARS-CoV-2). Kind of test: RBD/ACE2 blocking ELISA.
The target of test [9] is SARS-CoV-2 RBD (P.1) domain (SARS-CoV-2). Kind of test: RBD/ACE2 blocking ELISA.
The target in test [10] is SARS-CoV-2 delta plus variant RBD (SARS-CoV-2). Kind of test: RBD/ACE2 blocking ELISA.
The target in test [11] is T1, SARS-CoV-2 delta variant B.1.617.2/3 …. Kind of test: RBD/ACE2 blocking ELISA.
Test [12] concerns the target T2, SARS-CoV-2 kappa variant B.1.617.1/3 …. The test is described as follows: RBD/ACE2 blocking ELISA.
Test [13] concerns the target SARS-CoV-2 RBD (B.1.1.7) domain (SARS-CoV-2). The test is described as follows: ELISA.
Test [14] has as its target SARS-CoV-2 RBD (P.1) domain (SARS-CoV-2). Kind of test: ELISA.
In test [15] the target is T1, SARS-CoV-2 delta variant B.1.617.2/3 …. The test is described as follows: ELISA.
Test [16] concerns the target T2, SARS-CoV-2 kappa variant B.1.617.1/3 …. Kind of test: ELISA.

B1: CT-P59 (parental IgG1 version) (antibody, V domains shown)
VH: QITLKESGPTLVKPTQTLTLTCSFSGFSLSTSGVGVGWIRQPPGKALEWLALIDWDDNKYHTTSLKTRLTISKDTSKNQVVLTMTNMDPVDTATYYCARIPGFLRYRNRYYYYGMDVWGQGTTVTVSS
VL: ELVLTQPPSVSAAPGQKVTISCSGSSSNIGNNYVSWYQQLPGTAPKLLIYDNNKRPSGIPDRFSGSKSGTSATLGITGLQTGDEADYYCGTWDSSLSAGVFGGGTELTVL
For the molecule B1, the AUC in test [1] came to 3; in test [2], 3; in test [3] it was 4; in test [4] it was 3; in test [5], 3; in test [6], 3. The % binding inhibition turned out to be 86% in test [7]; 49% in [8]; 19% in test [9]; 91% in test [10]; 91% in test [11]; 94% in test [12].

B2: REG (antibody)
heavy chain variable region (VH): QITLKESGPTLVKPTQTLTLTCSFSGFSLSTSGVGVGWIRQPPGKALEWLALIDWDDNKYHTTSLKTRLTISKDTSKNQVVLTMTNMDPVDTATYYCARIPGFLRYRNRYYYYGMDVWGQGTTVTVSS
light chain variable region (VL): ELVLTQPPSVSAAPGQKVTISCSGSSSNIGNNYVSWYQQLPGTAPKLLIYDNNKRPSGIPDRFSGSKSGTSATLGITGLQTGDEADYYCGTWDSSLSAGVFGGGTELTVL
Consider B2, for which the OD405nm stood at 3.2 in [13], 3.6 in test [14], 3.4 in test [15] and 3.5 in [16].
